Legend:
[1] = biological target: T1, HIV-1 integrase with a C-terminal His6 tag (HIV-1 (pNL4-3)); assay: AlphaScreen or HTRF; settings: both partners purified
T1 construct: source: High Five insect cells (baculovirus), purified (Ni-NTA, Mono S); not shown: His6, C-terminal, kept

[2] = biological target: T2, human mitochondrial lysyl-tRNA synthetase with a C-terminal HA-tag (human, UniProt Q15046-2); assay: AlphaScreen or HTRF; settings: both partners purified
T2 construct: also called mLysRS; mLysRS-HA; source: E. coli, purified as described [12]

B1: mLysRS derivative with a C-terminal deletion of 22 aminoacid residues, with a C-terminal HA-tag (domain or fragment)
chain: not shown
For B1, the Kd [1] was 8.3 nM.

B2: p38, scaffold protein of the multi-synthetase complex (AIMP2), His-tagged (natural protein, human, UniProt Q13155 1-320, looked up)
chain: MPMYQVKPYHGGGAPLRVELPTCMYRLPNVHGRSYGPAPGAGHVQEESNLSLQALESRQDDILKRLYELKAAVDGLSKMIQTPDADLDVTNIIQADEPTTLTTNALDLNSVLGKDYGALKDIVINANPASPPLSLLVLHRLLCEHFRVLSTVHTHSSVKSVPENLLKCFGEQNKKQPRQDYQLGFTLIWKNVPKTQMKFSIQTMCPIEGEGNIARFLFSLFGQKHNAVNATLIDSWVDIAIFQLKEGSSKEKAAVFRSMNSALGKSPWLAGNELTVADVVLWSVLQQIGGCSVTVPANVQRWMRSCENLAPFNTALKLLK
notes: also called His-tagged p38
B2 showed a Kd [2] of 0.5 nM.

— paper PMC5863373, “Characterization of association of human mitochondrial lysyl-tRNA synthetase with HIV-1 Pol and tRNA3^Lys” (BMC Biochemistry, 2018)
